Kd, koff and kon data for 2 molecules are collected here from PMC7416112 (Structure(London, England:1993), 2020).

Assay in all cases: BLI
The target in test [1] is BG505 SOSIP.v4.1-2XStrep (N332) (HIV-1 (BG505)).
For test [2], the target named is BG505 SOSIP.v4.1-2XStrep N332 N295Q (HIV-1 (BG505)).
Test [3] has as its target BG505 SOSIP.v4.1-2XStrep N332 N339Q (HIV-1 (BG505)).
Test [4] concerns the target BG505 SOSIP.v4.1-2XStrep N332 N363Q (HIV-1 (BG505)).
Test [5] has as its target BG505 SOSIP.v4.1-2XStrep N332 N386Q (HIV-1 (BG505)).
In test [6] the target is BG505 SOSIP.v4.1-2XStrep N332 N392Q (HIV-1 (BG505)).
In test [7] the target is BG505 SOSIP.v4.1-2XStrep T332 (HIV-1 subtype A, BG505, UniProt Q2N0S6, stabilised). As to conditions: both partners purified.

With 2G12 Fab2, the Kd in test [1] is 4.25 nM; in test [2], 11.4 nM; in test [3] it was 7.35 nM; in test [4], 3.99 nM; in test [5], 3.15 nM; in test [6], 16.8 nM.

B1: 2G12 Fab2 (Fab, V domains shown)
VH: EVQLVESGGGLVKAGGSLILSCGVSNFRISAHTMNWVRRVPGGGLEWVASISTSSTYRDYADAVKGRFTVSRDDLEDFVYLQMHKMRVEDTAIYYCARKGSDRLSDNDPFDAWGPGTVVTVSP
VL: DVVMTQSPSTLSASVGDTITITCRASQSIETWLAWYQQKPGKAPKLLIYKASTLKTGVPSRFSGSGSGTEFTLTISGLQFDDFATYHCQHYAGYSATFGQGTRVEIK
notes: also called 2G12 bnAb; copies: 2 + 2
In test [7], B1 displayed a dissociation constant Kd of 22.9 nM, an off-rate constant (koff) of 0.00558 s⁻¹ and a kon of 244000 M⁻¹ s⁻¹.
